Reference: IntAct's records for PubMed 28966017

B1: Drebrin (Homo sapiens), Q16643 (parent)
chain: MAGVSFSGHRLELLAAYEEVIREESAADWALYTYEDGSDDLKLAASGEGGLQELSGHFENQKVMYGFCSVKDSQAALPKYVLINWVGEDVPDARKCACASHVAKVAEFFQGVDVIVNASSVEDIDAGAIGQRLSNGLARLSSPVLHRLRLREDENAEPVGTTYQKTDAAVEMKRINREQFWEQAKKEEELRKEEERKKALDERLRFEQERMEQERQEQEERERRYREREQQIEEHRRKQQTLEAEEAKRRLKEQSIFGDHRDEEEETHMKKSESEVEEAAAIIAQRPDNPREFFKQQERVASASAGSCDVPSPFNHRPGSHLDSHRRMAPTPIPTRSPSDSSTASTPVAEQIERALDEVTSSQPPPLPPPPPPAQETQEPSPILDSEETRAAAPQAWAGPMEEPPQAQAPPRGPGSPAEDLMFMESAEQAVLAAPVEPATADATEIHDAADTIETDTATADTTVANNVPPAATSLIDLWPGNGEGASTLQGEPRAPTPPSGTEVTLAEVPLLDEVAPEPLLPAGEGCATLLNFDELPEPPATFCDPEEVEGESLAAPQTPTLPSALEELEQEQEPEPHLLTNGETTQKEGTQASEGYFSQSQEEEFAQSEELCAKAPPPVFYNKPPEIDITCWDADPVPEEEEGFEGGD
partner: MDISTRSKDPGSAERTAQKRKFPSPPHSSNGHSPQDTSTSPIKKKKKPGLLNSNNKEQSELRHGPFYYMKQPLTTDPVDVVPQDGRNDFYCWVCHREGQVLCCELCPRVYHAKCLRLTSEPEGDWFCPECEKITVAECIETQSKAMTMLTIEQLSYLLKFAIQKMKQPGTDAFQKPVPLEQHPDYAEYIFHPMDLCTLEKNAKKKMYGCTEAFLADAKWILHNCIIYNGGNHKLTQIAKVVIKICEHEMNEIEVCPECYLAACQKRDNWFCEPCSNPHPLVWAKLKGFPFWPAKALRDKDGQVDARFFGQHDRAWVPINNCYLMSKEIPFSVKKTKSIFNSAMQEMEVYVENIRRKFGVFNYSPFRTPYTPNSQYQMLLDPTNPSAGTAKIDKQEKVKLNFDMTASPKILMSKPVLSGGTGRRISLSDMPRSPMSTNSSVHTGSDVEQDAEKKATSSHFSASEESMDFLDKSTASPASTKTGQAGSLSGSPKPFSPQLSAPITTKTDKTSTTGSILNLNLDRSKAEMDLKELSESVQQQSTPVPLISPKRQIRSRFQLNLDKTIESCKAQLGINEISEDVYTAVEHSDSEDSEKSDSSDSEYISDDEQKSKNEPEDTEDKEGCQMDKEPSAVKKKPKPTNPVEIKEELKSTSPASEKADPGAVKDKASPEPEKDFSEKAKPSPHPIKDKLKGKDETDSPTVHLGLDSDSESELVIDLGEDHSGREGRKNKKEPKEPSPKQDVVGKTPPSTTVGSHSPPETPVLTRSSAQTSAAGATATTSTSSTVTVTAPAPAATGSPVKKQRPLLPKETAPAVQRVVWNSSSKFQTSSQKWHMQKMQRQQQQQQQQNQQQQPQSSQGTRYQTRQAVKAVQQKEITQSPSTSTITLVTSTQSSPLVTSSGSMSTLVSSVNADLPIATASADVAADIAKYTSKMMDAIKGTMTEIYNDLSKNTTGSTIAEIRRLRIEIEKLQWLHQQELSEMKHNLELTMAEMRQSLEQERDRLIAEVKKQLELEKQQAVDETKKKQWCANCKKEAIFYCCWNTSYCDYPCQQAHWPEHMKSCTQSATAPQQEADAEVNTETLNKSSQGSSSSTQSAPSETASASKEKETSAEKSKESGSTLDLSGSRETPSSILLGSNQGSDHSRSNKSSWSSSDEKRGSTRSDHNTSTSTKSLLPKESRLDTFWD
B2: MYND-type zinc finger-containing chromatin reader ZMYND8 (Homo sapiens), Q9ULU4 (parent)
chain: B1 partner
partner: B1 chain

Variants of: B1
Settings: with zmyd8_human ZMYND8, Q9ULU4

| Variant | effect of a mutation on the interaction |
| --- | --- |
| R10G | disrupting interaction strength |

Variants of: B2
Settings: with dreb_human DBN1, Q16643

| Variant | effect of a mutation on the interaction |
| --- | --- |
| H311A | disrupting interaction strength |
